# ± gives the half width of the 95% confidence interval.
# Experiment: folding stability dG unfold (combined trypsin and chymotrypsin); higher = more stable
# Summary of the method: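 Unfolding free energy was derived, per protease or combined, by relating Bayesian-fitted K50 values from sequencing counts to a sequence-predicted unfolded-state K50 and a shared folded-state K50. The underlying digests exposed cysteine-free mini-proteins under 80 residues, in a PA-tagged cDNA display construct, to trypsin and chymotrypsin at 11 threefold-diluted concentrations and to a no-protease condition. A filter kept only designs with AlphaFold2 dimer inter-PAE above 15.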
row,Sequence,folding stability dG unfold [kcal/mol]
1,SAGGSAGGSAETVTITLKVKPGEKVKIVNKKTKKVFEATVKDGYLTITLPKEDITEIKIEKVSAGGSAGGSA [r18_170_TrROS_Hall],2.29 ± 0.09
2,SAGGSALEVKPGAGNTLTVYTPLPEDIPISEVIEELKKKYPNITAETDETSDGVAVVTLTLPPGLGSAGGSA [r15_1047_JUSTAS],0.724 ± 0.12
3,SAGGMVLKPVKLNGNENLKTTADGAEVEYTSDGKGNVTITVRYEPNLTVEALVNGSTVTLVKTEEGYLSAGG [r13_92_JUSTAS],0.867 ± 0.15
4,SAGGSAGGSAGGKKVIKVKVRIYPVDGSFEEKEVEAESLEELLEKVLEETHPESLIFIGSAGGSAGGSAGGS [r10_145_TrMRF],0.59 ± 0.16
5,SEWVSFMFPFKFEPDDGKIRIKIKMKAPDGEPLGEHEHPVRRDGDKVEVMQMITFPLPKGAQLDKIEIEPSA [r9_292_TrROS],0.922 ± 0.24
6,SAGGSAGGSAGGSRTIYEPVPPDVAGTRLITFTSPDSEPLSTRTVSVTPVPGGRGAVILGSAGGSAGGSAGG [r7_64_JUSTAS],-0.599 ± 0.23
7,SAGGSAGGSKGPVVILIFRPKYNPVKGIELEVEEVIVVSPEELSLSALGPALEEKEGYALILPSAGGSAGGS [r20_75_TrMRF],1.37 ± 0.038
8,SAGSVTSVEVKEKGEVTVTTETLNIDGKPYTVVSTTTPLLDPEGNVTYTTTTTVYDPNGNKISTTPTSLSAG [r14_465_JUSTAS],1.84 ± 0.051
9,SAGMVVLTEPGNGRLVVSELPEELAEEIARELGLPDITPVPPGVPAEEARAAHPALTAALEIPPEVLLSAGG [r19_270_JUSTAS],0.0846 ± 0.14
10,SAGGSAGGSAMITYTAPGGTPVTVTPDPVTGTLSATFPDGSVITAPVVGDTIPVTVVPPAAVSAGGSAGGSA [r18_405_JUSTAS],0.851 ± 0.042
11,SAGGSAGGSKKEEFYKITVYSPNKKAEEIAKKIQEETGTEIVEVKAEKFKDGGIKVIALVKKTSAGGSAGGS [r12_359_TrMRF],-0.0936 ± 0.48
12,SAGGSAGGSMTIPILFPIPPGQPPGMEITFRFPGYKIEIEILEVDPENGWIAFMIELTDPGDDSAGGSAGGS [r12_1039_TrROS],3.92 ± 0.11
13,KIHILPPGEPAKDPNGKTYEFPNMRIHRNPKNGKPTIYIPMDPEARDQGNPEALQWLRELVEELNIDKVEPS [r1_438_TrROS],-0.156 ± 0.16
14,SAGGSAGGSPDNWITFIFISISYKWKITKWDPENGGWKIEIKDVSIEIEIIRLPADDADKLFKSAGGSAGGS [r12_723_TrROS],3.85 ± 0.13
15,SAGGSAGGSPKIKEVKYIPPTGKIEVLIELPNGKPIKVTFDPKIKVNPVFYNGKPIFYFTGNPSAGGSAGGS [r12_789_TrMRF],1.19 ± 0.076
16,SAGGTAEEIAETIAEKFSKKNNNPNVRITVEKEPDSLRIDITFPNNGHEIEIEFEDGGIRKIEWEPYSAGGS [r16_397_TrROS],-0.269 ± 0.94

row,Sequence,folding stability dG unfold [kcal/mol]
1,SAGGSAGGSMYYVVVTRPGGRPEVIVVPTETLEEVEEVAARIAEALRELGIPEEELEIRVLPVSAGGSAGGS [r12_295_TrMRF],2.03 ± 0.091
2,SAGGSVSDIVNELKKKGIKVTSIEKTEDGTYVITTELPNGVKKEYKYSTSDPKNVAALKAAIPEELVSAGGS [r16_821_JUSTAS],1.36 ± 0.066
3,SAGGDWRPVEFTIKILIPKGMTADELIEEIKEIARNLGLTIKPISVEVYPVPNKYYVEINVEIWIPPNSAGG [r13_351_TrROS],4.17 ± 0.33
4,SAGGMKVYKTPDKITIELTHPETGEKAKGTYTPSTGKMTITYPNKLTVTISVDSNGNLTPVEKKPLLSAGGS [r16_127_JUSTAS],0.626 ± 0.069
5,SAGKRTIMIPFNVKPNQIRNIAKDIVEMHPGWKIKSIKVFNPNNGEPQELPLGDVPPNEPVWIKVEIEPSAG [r5_357_TrROS],2.29 ± 0.15
6,SAGGMITEEEILELEKRIREAAEAGDPETVEEELERAKEALEEYKKKGNKELLKKVEEIVKRAEELIASAGG [r13_137_JUSTAS],3.35 ± 0.26
7,SAGMNKIYRLNEPVKNITFSSSELENLFKDPNIDRIAVFHPDKPAIIPFPDGKISGEFPPNITIVLFGSAGG [r19_152_TrMRF],0.385 ± 0.2
8,SAGGSAGGSAMIGGGEDGNLVFLVTEDGKPLVLVAPPDEIKKILEELGIKDVVVVKPLPELSAGGSAGGSAG [r3_141_TrMRF],0.762 ± 0.1
9,SAGGSAGGSFVDPDGYKVIEFPIPMDDPGRIKEEVMDQFNLKDVKVEWEPTPGWYWVSIIVEPSAGGSAGGS [r12_929_TrROS],0.832 ± 0.14
10,SAGGSAGGSAGGSSGTSVSTEVSSSPVVTKTEYTKLDDGWSTTTTVVSTLPNALAPELTTSAGGSAGGSAGG [r7_845_JUSTAS],0.727 ± 0.079
11,SAGGSAGGSAGGKKTVKIEIEMPVEELLKKLKFPEGITSVRIIERDENGYLRIEIEVKLSAGGSAGGSAGGS [r10_352_TrROS_Hall],1.31 ± 0.23
12,SAGGSAMPEVKVEVEIIERDPENEDYVLVRIKVEVRFKTEDGEEVEVREERELLVFPSEEELKKALSAGGSA [r15_1019_TrROS_Hall],1.89 ± 0.33
13,SAGGDIKILSIQFMPPGWIMIVAEIPLENGEKWHISIMIRITPEARNHPPGQEYEFRIDINISIVPRSAGGS [r16_787_TrROS],4.5 ± 0.32
14,SAGGSAGGSETVTLELTLEDGRTLRIEFDPETQRLTVTFPDGSKQEIEVETLDDALAALLEALSAGGSAGGS [r12_866_TrROS_Hall],3.6 ± 0.062
15,SAGGSAERVLIEAESLEEAKAALEELGVTRVEEREVDGKRYLILVDLDDPEKIEVFSREELEKLLKSAGGSA [r15_11_TrROS_Hall],1.55 ± 0.083
16,SAMKLTVSSSSPEEAQAQAEALKAQLRAELAAAGHPGAEVPVEITVTAVPPPVPVDVADPTSDRWSPTPSAG [r14_475_JUSTAS],0.393 ± 0.07
